Source: article PMC4739761, “AMPylation matches BiP activity to client protein load in the endoplasmic reticulum” (eLife, 2015)
Where no end group is shown, it is not given here.

B1: hamster BiP (27-654, with a His6-tag), unmodified (natural protein)
chain: not shown
notes: BiP (GRP78), Chinese hamster (Cricetulus griseus), residues 27-654; numbers count on the precursor with its signal peptide (mature BiP is 19-654); also called wildtype (wt) BiP; GRP78; source: E. coli M15, purified (Ni-NTA); unmodified BiP from mock in vitro AMPylation reactions without enzyme served as control in the functional assays; not shown: His6, N-terminal, kept
B2: lucifer yellow-labeled BiP substrate peptide (HTFPAVLGSC) (peptide)
peptide: HTFPAVLGSC
modifications: also: lucifer yellow label, position not given here
notes: well-characterized BiP substrate peptide; also called LY-labeled substrate peptide; fluorescently-labeled substrate peptide
B3: hamster BiP (27-654, with a His6-tag) AMPylated in vitro to completion on Thr518 (natural protein)
chain: not shown
modifications: AMPylated threonine at 518 (single AMP)
notes: BiP (GRP78), Chinese hamster (Cricetulus griseus), residues 27-654; numbers count on the precursor with its signal peptide (mature BiP is 19-654); also called BiP-AMP; AMPylated BiP; source: E. coli M15, purified (Ni-NTA); not shown: His6, N-terminal, kept

Tests used:
Settings in all cases: both partners purified
[1] = target: B2; experiment: fluorescence polarisation; competitive dissociation: pre-formed complex of BiP or BiP-AMP (40 µM) and LY-labeled peptide (1 µM) in 1 mM ADP, 400-fold excess (0.4 mM) of unlabeled peptide added at t = 0; single phase decay fit of the first 60 min
[2] = target: B1; experiment: as above
[3] = target: B3; experiment: as above
[4] = target: B1; experiment: fluorescence polarisation; steady state: 1 µM lucifer yellow-labeled peptide with BiP or BiP-AMP at 0-40 µM, 1 mM ADP, 24 hr at 30°C, FP buffer (37.5 mM HEPES-KOH pH 7.4, 125 mM KCl, 7 mM MgCl2, 0.5 mM CaCl2, 125 mM imidazole, 0.05% Triton X-100); read at room temperature
[5] = target: B3; experiment: as above

B1
half-life (t1/2) of the complex [1]: 19.3 min

HTFPAVL (also called unlabeled peptide) [unlabeled substrate peptide (HTFPAVL)]
binding result [2]: binds | binding result [3]: binds

B2
Kd [4]: 16.7 µM | Kd [5]: 11.5 µM | koff [2]: 0.000617 s⁻¹ | koff [3]: 0.00353 s⁻¹

B3
half-life (t1/2) of the complex [1]: 3.3 min
